Laboratory results reported in patent US20200087373A1 (UNIVERSITY OF COPENHAGEN, published 2020).
Ends that are not written are not given here. * marks the point of attachment. C16 diacid = O=C(O)CCCCCCCCCCCCCCC(=O)*; Palmitoyl = CCCCCCCCCCCCCCCC(=O)*; Lauroyl = CCCCCCCCCCCC(=O)*

T1: human GIP receptor (human, UniProt P48546 22-466)
T1 construct: whole, on cells; also called hGIPR
T1 sequence (looked up): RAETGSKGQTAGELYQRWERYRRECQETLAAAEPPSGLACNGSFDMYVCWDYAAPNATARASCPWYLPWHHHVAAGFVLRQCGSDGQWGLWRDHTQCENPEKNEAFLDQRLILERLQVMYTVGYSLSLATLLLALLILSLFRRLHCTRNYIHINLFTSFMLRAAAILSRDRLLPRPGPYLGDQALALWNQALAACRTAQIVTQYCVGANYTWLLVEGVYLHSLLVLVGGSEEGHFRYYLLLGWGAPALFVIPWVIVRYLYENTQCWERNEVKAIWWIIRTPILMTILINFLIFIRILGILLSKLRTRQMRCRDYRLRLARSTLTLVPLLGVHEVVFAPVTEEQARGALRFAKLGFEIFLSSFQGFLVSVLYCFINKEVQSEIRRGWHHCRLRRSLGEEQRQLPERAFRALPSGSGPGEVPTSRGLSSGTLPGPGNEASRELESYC

B1: AT101 [hGIP(3-30)NH2-C12/3] (peptide)
peptide: Lauroyl-EGTFISDYSIAMDKIHQQDFVNWLLAQK-NH2
B2: AT159 [hGIP(3-30)NH2[K16R; H18K; K30R]-C16diacid/18] (peptide)
peptide: EGTFISDYSIAMDRIK(C16 diacid)QQDFVNWLLAQR-NH2
modifications: N-terminus assumed
SMILES: CC[C@H](C)[C@H](NC(=O)[C@H](CO)NC(=O)[C@H](Cc1ccc(O)cc1)NC(=O)[C@H](CC(=O)O)NC(=O)[C@H](CO)NC(=O)[C@@H](NC(=O)[C@H](Cc1ccccc1)NC(=O)[C@@H](NC(=O)CNC(=O)[C@@H](N)CCC(=O)O)[C@@H](C)O)[C@@H](C)CC)C(=O)N[C@@H](C)C(=O)N[C@@H](CCSC)C(=O)N[C@@H](CC(=O)O)C(=O)N[C@@H](CCCNC(=N)N)C(=O)N[C@H](C(=O)N[C@@H](CCCCNC(=O)CCCCCCCCCCCCCCC(=O)O)C(=O)N[C@@H](CCC(N)=O)C(=O)N[C@@H](CCC(N)=O)C(=O)N[C@@H](CC(=O)O)C(=O)N[C@@H](Cc1ccccc1)C(=O)N[C@H](C(=O)N[C@@H](CC(N)=O)C(=O)N[C@@H](Cc1c[nH]c2ccccc12)C(=O)N[C@@H](CC(C)C)C(=O)N[C@@H](CC(C)C)C(=O)N[C@@H](C)C(=O)N[C@@H](CCC(N)=O)C(=O)N[C@@H](CCCNC(=N)N)C(N)=O)C(C)C)[C@@H](C)CC
B3: AT130 [hGIP(3-30)NH2[D15E; H18A]-C12/30] (peptide)
peptide: EGTFISDYSIAMEKIAQQDFVNWLLAQK(C12 fatty acyl)-NH2
B4: AT144 [hGIP(3-30)NH2[K16R; H18K; K30R]-C16/18] (peptide)
peptide: EGTFISDYSIAMDRIK(Palmitoyl)QQDFVNWLLAQR-NH2
modifications: N-terminus assumed
SMILES: CCCCCCCCCCCCCCCC(=O)NCCCC[C@H](NC(=O)[C@@H](NC(=O)[C@H](CCCNC(=N)N)NC(=O)[C@H](CC(=O)O)NC(=O)[C@H](CCSC)NC(=O)[C@H](C)NC(=O)[C@@H](NC(=O)[C@H](CO)NC(=O)[C@H](Cc1ccc(O)cc1)NC(=O)[C@H](CC(=O)O)NC(=O)[C@H](CO)NC(=O)[C@@H](NC(=O)[C@H](Cc1ccccc1)NC(=O)[C@@H](NC(=O)CNC(=O)[C@@H](N)CCC(=O)O)[C@@H](C)O)[C@@H](C)CC)[C@@H](C)CC)[C@@H](C)CC)C(=O)N[C@@H](CCC(N)=O)C(=O)N[C@@H](CCC(N)=O)C(=O)N[C@@H](CC(=O)O)C(=O)N[C@@H](Cc1ccccc1)C(=O)N[C@H](C(=O)N[C@@H](CC(N)=O)C(=O)N[C@@H](Cc1c[nH]c2ccccc12)C(=O)N[C@@H](CC(C)C)C(=O)N[C@@H](CC(C)C)C(=O)N[C@@H](C)C(=O)N[C@@H](CCC(N)=O)C(=O)N[C@@H](CCCNC(=N)N)C(N)=O)C(C)C
B5: AT158 [hGIP(3-30)NH2[H18K]-C16diacid/18] (peptide)
peptide: EGTFISDYSIAMDKIK(C16 diacid)QQDFVNWLLAQK-NH2
modifications: N-terminus assumed
SMILES: CC[C@H](C)[C@H](NC(=O)[C@H](CO)NC(=O)[C@H](Cc1ccc(O)cc1)NC(=O)[C@H](CC(=O)O)NC(=O)[C@H](CO)NC(=O)[C@@H](NC(=O)[C@H](Cc1ccccc1)NC(=O)[C@@H](NC(=O)CNC(=O)[C@@H](N)CCC(=O)O)[C@@H](C)O)[C@@H](C)CC)C(=O)N[C@@H](C)C(=O)N[C@@H](CCSC)C(=O)N[C@@H](CC(=O)O)C(=O)N[C@@H](CCCCN)C(=O)N[C@H](C(=O)N[C@@H](CCCCNC(=O)CCCCCCCCCCCCCCC(=O)O)C(=O)N[C@@H](CCC(N)=O)C(=O)N[C@@H](CCC(N)=O)C(=O)N[C@@H](CC(=O)O)C(=O)N[C@@H](Cc1ccccc1)C(=O)N[C@H](C(=O)N[C@@H](CC(N)=O)C(=O)N[C@@H](Cc1c[nH]c2ccccc12)C(=O)N[C@@H](CC(C)C)C(=O)N[C@@H](CC(C)C)C(=O)N[C@@H](C)C(=O)N[C@@H](CCC(N)=O)C(=O)N[C@@H](CCCCN)C(N)=O)C(C)C)[C@@H](C)CC
B6: AT131 [hGIP(3-30)NH2[D15E; H18A]-C16/16] (peptide)
peptide: EGTFISDYSIAMEK(Palmitoyl)IAQQDFVNWLLAQK-NH2
modifications: N-terminus assumed
SMILES: CCCCCCCCCCCCCCCC(=O)NCCCC[C@H](NC(=O)[C@H](CCC(=O)O)NC(=O)[C@H](CCSC)NC(=O)[C@H](C)NC(=O)[C@@H](NC(=O)[C@H](CO)NC(=O)[C@H](Cc1ccc(O)cc1)NC(=O)[C@H](CC(=O)O)NC(=O)[C@H](CO)NC(=O)[C@@H](NC(=O)[C@H](Cc1ccccc1)NC(=O)[C@@H](NC(=O)CNC(=O)[C@@H](N)CCC(=O)O)[C@@H](C)O)[C@@H](C)CC)[C@@H](C)CC)C(=O)N[C@H](C(=O)N[C@@H](C)C(=O)N[C@@H](CCC(N)=O)C(=O)N[C@@H](CCC(N)=O)C(=O)N[C@@H](CC(=O)O)C(=O)N[C@@H](Cc1ccccc1)C(=O)N[C@H](C(=O)N[C@@H](CC(N)=O)C(=O)N[C@@H](Cc1c[nH]c2ccccc12)C(=O)N[C@@H](CC(C)C)C(=O)N[C@@H](CC(C)C)C(=O)N[C@@H](C)C(=O)N[C@@H](CCC(N)=O)C(=O)N[C@@H](CCCCN)C(N)=O)C(C)C)[C@@H](C)CC
B7: AT107 [hGIP(3-30)NH2[T5W; D15E; H18A]-C16/16] (peptide)
peptide: EGWFISDYSIAMEK(Palmitoyl)IAQQDFVNWLLAQK-NH2
modifications: N-terminus assumed
SMILES: CCCCCCCCCCCCCCCC(=O)NCCCC[C@H](NC(=O)[C@H](CCC(=O)O)NC(=O)[C@H](CCSC)NC(=O)[C@H](C)NC(=O)[C@@H](NC(=O)[C@H](CO)NC(=O)[C@H](Cc1ccc(O)cc1)NC(=O)[C@H](CC(=O)O)NC(=O)[C@H](CO)NC(=O)[C@@H](NC(=O)[C@H](Cc1ccccc1)NC(=O)[C@H](Cc1c[nH]c2ccccc12)NC(=O)CNC(=O)[C@@H](N)CCC(=O)O)[C@@H](C)CC)[C@@H](C)CC)C(=O)N[C@H](C(=O)N[C@@H](C)C(=O)N[C@@H](CCC(N)=O)C(=O)N[C@@H](CCC(N)=O)C(=O)N[C@@H](CC(=O)O)C(=O)N[C@@H](Cc1ccccc1)C(=O)N[C@H](C(=O)N[C@@H](CC(N)=O)C(=O)N[C@@H](Cc1c[nH]c2ccccc12)C(=O)N[C@@H](CC(C)C)C(=O)N[C@@H](CC(C)C)C(=O)N[C@@H](C)C(=O)N[C@@H](CCC(N)=O)C(=O)N[C@@H](CCCCN)C(N)=O)C(C)C)[C@@H](C)CC
B8: AT143 [hGIP(3-30)NH2[M14L; H18K]-C16/18] (peptide)
peptide: EGTFISDYSIALDKIK(Palmitoyl)QQDFVNWLLAQK-NH2
modifications: N-terminus assumed
SMILES: CCCCCCCCCCCCCCCC(=O)NCCCC[C@H](NC(=O)[C@@H](NC(=O)[C@H](CCCCN)NC(=O)[C@H](CC(=O)O)NC(=O)[C@H](CC(C)C)NC(=O)[C@H](C)NC(=O)[C@@H](NC(=O)[C@H](CO)NC(=O)[C@H](Cc1ccc(O)cc1)NC(=O)[C@H](CC(=O)O)NC(=O)[C@H](CO)NC(=O)[C@@H](NC(=O)[C@H](Cc1ccccc1)NC(=O)[C@@H](NC(=O)CNC(=O)[C@@H](N)CCC(=O)O)[C@@H](C)O)[C@@H](C)CC)[C@@H](C)CC)[C@@H](C)CC)C(=O)N[C@@H](CCC(N)=O)C(=O)N[C@@H](CCC(N)=O)C(=O)N[C@@H](CC(=O)O)C(=O)N[C@@H](Cc1ccccc1)C(=O)N[C@H](C(=O)N[C@@H](CC(N)=O)C(=O)N[C@@H](Cc1c[nH]c2ccccc12)C(=O)N[C@@H](CC(C)C)C(=O)N[C@@H](CC(C)C)C(=O)N[C@@H](C)C(=O)N[C@@H](CCC(N)=O)C(=O)N[C@@H](CCCCN)C(N)=O)C(C)C
B9: AT153 [hGIP(3-30)NH2[H18R; K30R]-C12/16] (peptide)
peptide: EGTFISDYSIAMDK(Lauroyl)IRQQDFVNWLLAQR-NH2
modifications: N-terminus assumed
SMILES: CCCCCCCCCCCC(=O)NCCCC[C@H](NC(=O)[C@H](CC(=O)O)NC(=O)[C@H](CCSC)NC(=O)[C@H](C)NC(=O)[C@@H](NC(=O)[C@H](CO)NC(=O)[C@H](Cc1ccc(O)cc1)NC(=O)[C@H](CC(=O)O)NC(=O)[C@H](CO)NC(=O)[C@@H](NC(=O)[C@H](Cc1ccccc1)NC(=O)[C@@H](NC(=O)CNC(=O)[C@@H](N)CCC(=O)O)[C@@H](C)O)[C@@H](C)CC)[C@@H](C)CC)C(=O)N[C@H](C(=O)N[C@@H](CCCNC(=N)N)C(=O)N[C@@H](CCC(N)=O)C(=O)N[C@@H](CCC(N)=O)C(=O)N[C@@H](CC(=O)O)C(=O)N[C@@H](Cc1ccccc1)C(=O)N[C@H](C(=O)N[C@@H](CC(N)=O)C(=O)N[C@@H](Cc1c[nH]c2ccccc12)C(=O)N[C@@H](CC(C)C)C(=O)N[C@@H](CC(C)C)C(=O)N[C@@H](C)C(=O)N[C@@H](CCC(N)=O)C(=O)N[C@@H](CCCNC(=N)N)C(N)=O)C(C)C)[C@@H](C)CC
B10: AT145 [hGIP(5-30)NH2[H18K]-C16/18] (peptide)
peptide: TFISDYSIAMDKIK(Palmitoyl)QQDFVNWLLAQK-NH2
modifications: N-terminus assumed
SMILES: CCCCCCCCCCCCCCCC(=O)NCCCC[C@H](NC(=O)[C@@H](NC(=O)[C@H](CCCCN)NC(=O)[C@H](CC(=O)O)NC(=O)[C@H](CCSC)NC(=O)[C@H](C)NC(=O)[C@@H](NC(=O)[C@H](CO)NC(=O)[C@H](Cc1ccc(O)cc1)NC(=O)[C@H](CC(=O)O)NC(=O)[C@H](CO)NC(=O)[C@@H](NC(=O)[C@H](Cc1ccccc1)NC(=O)[C@@H](N)[C@@H](C)O)[C@@H](C)CC)[C@@H](C)CC)[C@@H](C)CC)C(=O)N[C@@H](CCC(N)=O)C(=O)N[C@@H](CCC(N)=O)C(=O)N[C@@H](CC(=O)O)C(=O)N[C@@H](Cc1ccccc1)C(=O)N[C@H](C(=O)N[C@@H](CC(N)=O)C(=O)N[C@@H](Cc1c[nH]c2ccccc12)C(=O)N[C@@H](CC(C)C)C(=O)N[C@@H](CC(C)C)C(=O)N[C@@H](C)C(=O)N[C@@H](CCC(N)=O)C(=O)N[C@@H](CCCCN)C(N)=O)C(C)C

Target: T1, human GIP receptor
Assay: 125I-hGIP competition binding, COS-7 cells expressing hGIPR;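 note: nonspecific binding taken as radioligand bound by untransfected cells, binding buffer with or without 2% HSA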
Protocol: After incubation, the cells were washed twice in ice-cold binding buffer (+/−2% HSA) and lysed using 200 mM NaOH with 1% SDS for 30 min. Nonspecific binding was determined as the binding of radioactive ligand to untransfected cells.

Row | Binder | IC50 | log IC50
1 | B1 | 9.9 nM | -8 log M
2 | B2 | 18 nM | –
3 | B3 | 1210 nM | -5.9 log M
4 | B4 | 297 nM | -6.53 log M
5 | B5 | 8.2 nM | –
6 | B6 | 6510 nM | -5.2 log M
7 | B7 | 5220 nM | -5.3 log M
8 | B8 | 80 nM | –
9 | B9 | 316 nM | -7 log M
10 | B10 | 155 nM | -6.8 log M
